One block for each binder: values may come before it.
Key:
[1] = molecular target: M17-modified M NTAA target peptides; test: encoding assay; P2 L;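 also: fraction of recording tags encoded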
[2] = molecular target: M17-modified H NTAA target peptides; test: encoding assay; P2 L;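 also: fraction of recording tags encoded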
[3] = molecular target: M17-modified I NTAA target peptides; test: encoding assay; P2 L;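 also: fraction of recording tags encoded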
[4] = molecular target: M17-modified S NTAA target peptides; test: encoding assay; P2 L;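 also: fraction of recording tags encoded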
[5] = molecular target: M17-modified Y NTAA target peptides (M17-Y-P2-peptide); test: encoding assay; P2 L;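 also: fraction of recording tags encoded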
[6] = molecular target: M17-modified D NTAA target peptides; test: encoding assay; P2 L;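 also: fraction of recording tags encoded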
[7] = molecular target: M17-modified L NTAA target peptides; test: encoding assay; P2 L;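 also: fraction of recording tags encoded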
[8] = molecular target: M17-modified E NTAA target peptides; test: encoding assay; P2 L;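 also: fraction of recording tags encoded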
[9] = molecular target: M17-modified A NTAA target peptides; test: encoding assay; P2 L;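 also: fraction of recording tags encoded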
[10] = molecular target: M17-modified N NTAA target peptides; test: encoding assay; P2 L;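 also: fraction of recording tags encoded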
[11] = molecular target: M17-modified V NTAA target peptides; test: encoding assay; P2 L;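 also: fraction of recording tags encoded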
[12] = molecular target: M17-modified M NTAA target peptides; test: encoding assay; P2 T;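 also: fraction of recording tags encoded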
[13] = molecular target: M17-modified Q NTAA target peptides; test: encoding assay; P2 T;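 also: fraction of recording tags encoded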
[14] = molecular target: M17-modified W NTAA target peptides; test: encoding assay; P2 T;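 also: fraction of recording tags encoded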
[15] = molecular target: M17-modified H NTAA target peptides; test: encoding assay; P2 T;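 also: fraction of recording tags encoded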
[16] = molecular target: M17-modified G NTAA target peptides; test: encoding assay; P2 T;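 also: fraction of recording tags encoded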
[17] = molecular target: M17-modified I NTAA target peptides; test: encoding assay; P2 T;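 also: fraction of recording tags encoded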
[18] = molecular target: M17-modified S NTAA target peptides; test: encoding assay; P2 T;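 also: fraction of recording tags encoded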
[19] = molecular target: M17-modified Y NTAA target peptides (M17-Y-P2-peptide); test: encoding assay; P2 T;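 also: fraction of recording tags encoded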
[20] = molecular target: M17-modified D NTAA target peptides; test: encoding assay; P2 T;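 also: fraction of recording tags encoded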
[21] = molecular target: M17-modified F NTAA target peptides; test: encoding assay; P2 T;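 also: fraction of recording tags encoded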
[22] = molecular target: M17-modified P NTAA target peptides; test: encoding assay; P2 T;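 also: fraction of recording tags encoded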
[23] = molecular target: M17-modified L NTAA target peptides; test: encoding assay; P2 T;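 also: fraction of recording tags encoded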
[24] = molecular target: M17-modified E NTAA target peptides; test: encoding assay; P2 T;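 also: fraction of recording tags encoded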
[25] = molecular target: M17-modified A NTAA target peptides; test: encoding assay; P2 T;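 also: fraction of recording tags encoded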
[26] = molecular target: M17-modified T NTAA target peptides; test: encoding assay; P2 T;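 also: fraction of recording tags encoded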
[27] = molecular target: M17-modified N NTAA target peptides; test: encoding assay; P2 T;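 also: fraction of recording tags encoded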
[28] = molecular target: M17-modified V NTAA target peptides; test: encoding assay; P2 T;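 also: fraction of recording tags encoded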
[29] = molecular target: M17-modified M NTAA target peptides; test: encoding assay; P2 M;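 also: fraction of recording tags encoded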
[30] = molecular target: M17-modified Q NTAA target peptides; test: encoding assay; P2 M;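 also: fraction of recording tags encoded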
[31] = molecular target: M17-modified H NTAA target peptides; test: encoding assay; P2 M;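 also: fraction of recording tags encoded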
[32] = molecular target: M17-modified G NTAA target peptides; test: encoding assay; P2 M;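 also: fraction of recording tags encoded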
[33] = molecular target: M17-modified I NTAA target peptides; test: encoding assay; P2 M;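 also: fraction of recording tags encoded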
[34] = molecular target: M17-modified S NTAA target peptides; test: encoding assay; P2 M;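 also: fraction of recording tags encoded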
[35] = molecular target: M17-modified Y NTAA target peptides (M17-Y-P2-peptide); test: encoding assay; P2 M;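 also: fraction of recording tags encoded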
[36] = molecular target: M17-modified D NTAA target peptides; test: encoding assay; P2 M;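 also: fraction of recording tags encoded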
[37] = molecular target: M17-modified F NTAA target peptides; test: encoding assay; P2 M;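 also: fraction of recording tags encoded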
[38] = molecular target: M17-modified P NTAA target peptides; test: encoding assay; P2 M;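 also: fraction of recording tags encoded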
[39] = molecular target: M17-modified L NTAA target peptides; test: encoding assay; P2 M;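 also: fraction of recording tags encoded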
[40] = molecular target: M17-modified E NTAA target peptides; test: encoding assay; P2 M;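 also: fraction of recording tags encoded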
[41] = molecular target: M17-modified A NTAA target peptides; test: encoding assay; P2 M;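 also: fraction of recording tags encoded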
[42] = molecular target: M17-modified T NTAA target peptides; test: encoding assay; P2 M;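 also: fraction of recording tags encoded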
[43] = molecular target: M17-modified N NTAA target peptides; test: encoding assay; P2 M;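 also: fraction of recording tags encoded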
[44] = molecular target: M17-modified V NTAA target peptides; test: encoding assay; P2 M;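 also: fraction of recording tags encoded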
[45] = molecular target: M44-modified S NTAA target peptides; test: encoding assay; P2 T
[46] = molecular target: M44-modified H NTAA target peptides; test: encoding assay; P2 T;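 also: fraction of recording tags encoded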
[47] = molecular target: M44-modified W NTAA target peptides; test: encoding assay; P2 T;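 also: fraction of recording tags encoded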
[48] = molecular target: M44-modified D NTAA target peptides; test: encoding assay; P2 T;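 also: fraction of recording tags encoded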
[49] = molecular target: M44-modified S NTAA target peptides; test: encoding assay; P2 M
[50] = molecular target: M44-modified H NTAA target peptides; test: encoding assay; P2 M;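 also: fraction of recording tags encoded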
[51] = molecular target: M44-modified Q NTAA target peptides; test: encoding assay; P2 M;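 also: fraction of recording tags encoded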
[52] = molecular target: M44-modified D NTAA target peptides; test: encoding assay; P2 M;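 also: fraction of recording tags encoded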
[53] = molecular target: M44-modified G NTAA target peptides (M44-G-P2-peptide); test: encoding assay; P2 M;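 also: fraction of recording tags encoded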
[54] = molecular target: M44-modified A NTAA target peptides (M44-A-P2-peptide); test: encoding assay; P2 M;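 also: fraction of recording tags encoded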

encoding yield [1]: 0.03 | encoding yield [2]: 0.02 | encoding yield [3]: 0.01 | encoding yield [4]: 0.03 | encoding yield [5]: 0.17 | encoding yield [6]: 0.02 | encoding yield [7]: 0.06 | encoding yield [8]: 0.03 | encoding yield [9]: 0.02 | encoding yield [10]: 0.03 | encoding yield [11]: 0.02 | encoding yield [12]: 0.01 | encoding yield [13]: 0.03 | encoding yield [14]: 0.01 | encoding yield [15]: 0.01 | encoding yield [16]: 0.04 | encoding yield [17]: 0.06 | encoding yield [18]: 0.01 | encoding yield [19]: 0.14 | encoding yield [20]: 0.01 | encoding yield [21]: 0.06 | encoding yield [22]: 0.01 | encoding yield [23]: 0.04 | encoding yield [24]: 0.01 | encoding yield [25]: 0.03 | encoding yield [26]: 0.02 | encoding yield [27]: 0.02 | encoding yield [28]: 0.03 | encoding yield [29]: 0.01 | encoding yield [30]: 0.01 | encoding yield [31]: 0.01 | encoding yield [32]: 0.01 | encoding yield [33]: 0.06 | encoding yield [34]: 0.01 | encoding yield [35]: 0.1 | encoding yield [36]: 0.02 | encoding yield [37]: 0.03 | encoding yield [38]: 0.02 | encoding yield [39]: 0.02 | encoding yield [40]: 0.02 | encoding yield [41]: 0.01 | encoding yield [42]: 0.04 | encoding yield [43]: 0.02 | encoding yield [44]: 0.03
B1: engineered M17-Y binder (SEQ ID NO: 61) (designed binder, not shown: small tags and cut ends; large carriers)
chain: TVPDRSEIAGKWYVVALASNTEFYLREKDWVKSAMARISFLGEDELKVSSAVPSPNGCYKVERTWKKTSDDGEVYNSRAAKLKVEVLDTDYKSYAVIYATRVKDGRTDHQMILYSRSPEVSPAATAIFRKLAGERNYTDEMVAMLPRQEECTVDEV

encoding yield [1]: 0.03 | encoding yield [2]: 0.04 | encoding yield [3]: 0.06 | encoding yield [4]: 0.03 | encoding yield [5]: 0.29 | encoding yield [6]: 0.02 | encoding yield [7]: 0.12 | encoding yield [8]: 0.03 | encoding yield [9]: 0.02 | encoding yield [10]: 0.03 | encoding yield [11]: 0.04 | encoding yield [12]: 0.02 | encoding yield [13]: 0.02 | encoding yield [14]: 0.02 | encoding yield [15]: 0.02 | encoding yield [16]: 0.05 | encoding yield [17]: 0.1 | encoding yield [18]: 0.01 | encoding yield [19]: 0.24 | encoding yield [20]: 0.02 | encoding yield [21]: 0.08 | encoding yield [22]: 0.01 | encoding yield [23]: 0.08 | encoding yield [24]: 0.02 | encoding yield [25]: 0.02 | encoding yield [26]: 0.04 | encoding yield [27]: 0.02 | encoding yield [28]: 0.05 | encoding yield [29]: 0.02 | encoding yield [30]: 0.01 | encoding yield [31]: 0.01 | encoding yield [32]: 0.02 | encoding yield [33]: 0.1 | encoding yield [34]: 0.01 | encoding yield [35]: 0.23 | encoding yield [36]: 0.02 | encoding yield [37]: 0.06 | encoding yield [38]: 0.03 | encoding yield [39]: 0.04 | encoding yield [40]: 0.03 | encoding yield [41]: 0.02 | encoding yield [42]: 0.05 | encoding yield [43]: 0.02 | encoding yield [44]: 0.03
B2: upgraded binder after additional maturation round (SEQ ID NO: 62) (designed binder, not shown: small tags and cut ends; large carriers)
chain: TVPDRSEIAGKWYVVALASNTEFYLRGKDRVKSAMVRISFQGEDELKVSSAVPSPNGCYKVERTWKKTSDDGEVYNSRAAKLKVEVLDTDYKSYAVIYATRVKDRRTDHQMILYSRSPDVSPAATAIFRKLAGERNYTDEMVAMLPRQEECTVDEV

encoding yield [45]: 0.01 | encoding yield [46]: 0.02 | encoding yield [47]: 0.01 | encoding yield [48]: 0.01 | encoding yield [49]: 0.01 | encoding yield [50]: 0.01 | encoding yield [51]: 0.01 | encoding yield [52]: 0.01 | encoding yield [53]: 0.01 | encoding yield [54]: 0.02
B3: engineered M44-L binder (SEQ ID NO: 31) (designed binder, not shown: small tags and cut ends; large carriers)
chain: QDSTQNLIPAPPLISVPLQPGFWTERFQGRWFLVGFAGNAVQKERQSRLTMQSLILELQEDNSYNITAINVRGQGCRYIISTLVPSSRPGQFTLGNIHSYPQIQSLDVQVADTDYDQFAMVFLQGTSENKQYFEVALAGRTKGLSDELKERFVSFAKSLGLKDNNIVFSVPTDQCIDN

encoding yield [45]: 0.01 | encoding yield [46]: 0.01 | encoding yield [47]: 0.01 | encoding yield [48]: 0.02 | encoding yield [49]: 0.04 | encoding yield [50]: 0.01 | encoding yield [51]: 0.01 | encoding yield [52]: 0.02 | encoding yield [53]: 0.04 | encoding yield [54]: 0.1
B4: engineered M44-A binder (SEQ ID NO: 42) (designed binder, not shown: small tags and cut ends; large carriers)
chain: QVSVQPNFQQDKFLGRWFVAGLASNSSWDREKVAALSGAKMVVAPATDGGLNVTRTMLRKNQCETYTGLLQPAGSLGSYSWRSPHPGSTGSESVVETDYDQYALVYGQGSKGPGEDLRAAALWSRTQTPRAELKEKFTAFSKAQGFTEDTIVFLPQTDKCMTEQ

— US20230220589A1
